Source: the supplement of paper PMC10567573
± gives the standard deviation.

Test: protein stability index of a GFP-peptide fusion (GPS, HEK-293T) (PSI 1-6); higher = more stable
[1] = treatment: DMSO, c terminus: a fixed tail appended
[2] = treatment: MLN4924 1 uM, 8 h, c terminus: a fixed tail appended
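Note: 24-mer peptide tiles fused after GFP, lentivirally expressed, FACS-sorted into six equal bins by GFP/DsRed ratio, decoded by Illumina sequencing, PSI is the read-weighted mean bin number.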

| Sequence | protein stability index [1] | protein stability index [2] | protein stability index (treatment: DMSO, c terminus: native) | protein stability index (treatment: MLN4924 1 uM, 8 h, c terminus: native) |
| --- | --- | --- | --- | --- |
| MRDQYMRAGEGFIICYSITDRRSF [RIT1] | 2.37 ± 0.82 | 2.11 ± 0.38 | – | – |
| KQPNCSSLFKLKPLSNKTATDDTG [PLD5] | 4.46 ± 0.13 | 4.772 ± 0.045 | – | – |
| EMHFLENAKKLSMYGVDLHHAKDS [EPB41L3] | 3.03 ± 0.67 | 2.8 ± 0.25 | – | – |
| TRWLNSGRGDEASEEGQNGSSPKS [ADD1] | 5.4 ± 0.12 | 5.44 ± 0.24 | – | – |
| SIRLPLDAPLPGSKAKPKPPKQAQ [TBC1D10A] | 4.36 ± 0.09 | 4.72 ± 0.11 | – | – |
| TPLIQQRARDSPEPGAGLGIGDMA [PSD2] | 4.55 ± 0.24 | 4.37 ± 0.12 | – | – |
| QALKRKKRFEKQLTQIDGTLSTIE [CHMP4C] | 4.05 ± 0.18 | 3.96 ± 0.23 | – | – |
| LDISDSISESGGLNWKMTLCLLVA [SLC6A17] | 2.54 ± 0.48 | 2.5 ± 0.79 | – | – |
| FSGTPPPPVLSFRLVHTTAIEHFQ [FCHO1] | 2.32 ± 0.24 | 2.28 ± 0.19 | – | – |
| YSYMSPNKCSGMRFPLQEENSVTH [KMT5A] | 3.35 ± 0.25 | 3.14 ± 0.1 | – | – |
| SFINFFTSVLATLVVFAVLGFKAN [SLC6A17] | 4.11 ± 0.85 | 3.06 ± 0.36 | – | – |
| CSKSYSRRSFLIEHQRSHTGERPH [ZSCAN9] | 3.42 ± 0.073 | 3.52 ± 0.36 | – | – |
| FHEDGPQGPGGDEDDDEEDTDKLL [PSD2] | 5.55 ± 0.32 | 5.59 ± 0.2 | – | – |
| APHSTFFDPIVLLPCDLPKVVSRA [LPCAT4] | 2.67 ± 0.31 | 2.72 ± 0.15 | – | – |
| NQEILLPGGITSHQLLGLFPSTSY [TNXB] | 2.58 ± 0.092 | 2.53 ± 0.27 | – | – |
| RKHALERFEQEAVAVDSNLRVREL [CCDC89] | 4.21 ± 0.12 | 4.47 ± 0.21 | – | – |
| ATLAACTSNGWGVTDCKHTEDVGV [LOXL2] | 4.03 ± 0.42 | 4.08 ± 0.21 | – | – |
| ERHKLKRQDADAWTLYKILDSCKQ [SMG5] | 2.75 ± 0.21 | 2.9 ± 0.36 | – | – |
| RRLQEVLGVQTGGPGGRRAGEPGH [DYRK1B] | 4.12 ± 0.3 | 4.18 ± 0.26 | – | – |
| MAMVVSTWRDPQDEVPGSQGSQAS [NR2F2] | 4.05 ± 0.27 | 4.32 ± 0.25 | – | – |
| GTLDCISMALTCTFNRWGTLLAVG [RBBP5] | 3.2 ± 0.3 | 3.24 ± 0.59 | – | – |
| RLFLVEDLVDSLKLAVFMWLMTYV [RTN3] | 2.72 ± 0.65 | 2.64 ± 0.78 | – | – |
| SPGSPVGEGTGSPPKWQIGEQEFE [ADD1] | 5.35 ± 0.14 | 5.35 ± 0.25 | – | – |

| Sequence | protein stability index [1] | protein stability index [2] | protein stability index (treatment: DMSO, c terminus: native) | protein stability index (treatment: MLN4924 1 uM, 8 h, c terminus: native) |
| --- | --- | --- | --- | --- |
| PKRMPSGRGGRDRFTAESYTVLGD [FSD1] | 4.11 ± 0.33 | 4.3 ± 0.22 | – | – |
| SRAGGPTTPLSPTRLSRLQEKEEL [LMNB1] | 5.15 ± 0.37 | 5.36 ± 0.15 | – | – |
| IVSRATGRCLEVEMSKDANFGLRL [GALNT9] | 2.66 ± 0.76 | 2.72 ± 0.67 | – | – |
| MVPGTRHSAVLRDLRSGTLYSLTL [TNXB] | 2.91 ± 0.58 | 2.03 ± 0.52 | – | – |
| TSGQVVAVKKFVESEDDPVVKKIA [CDKL4] | 4.66 ± 0.06 | 4.82 ± 0.35 | – | – |
| EAEEEELRAELTKVEEEIVTLRQV [TPD52L2] | 4.25 ± 0.26 | 4.63 ± 0.51 | – | – |
| VTGLNPKTKYILLMDIVPADDHRY [TBX5] | 2.63 ± 0.44 | 1.95 ± 0.53 | – | – |
| PLHVHEEEGILVAVGQDCYTRIWS [DCAF4] | 2.67 ± 0.3 | 2.74 ± 0.43 | – | – |
| TPRGPDPALLEATGGAAGAGGAGR [KCTD13] | 5.13 ± 0.23 | 5.18 ± 0.21 | – | – |
| SHKGAEELALALKGNTTLQQLDLR [LRRC45] | 3.99 ± 0.18 | 4.17 ± 0.65 | – | – |
| RHLTSRHQEAEMAQNAVRLHYGLP [CTNNB1] | 3.71 ± 0.14 | 3.73 ± 0.25 | – | – |
| WNMDKYTMIRKLEGHHHDVVACDF [WSB1] | 2.38 ± 0.19 | 2.58 ± 0.33 | – | – |
| LHYAAMHGRARIARLMLESEYRSD [ASB7] | 2.73 ± 0.19 | 2.77 ± 0.28 | – | – |
| SPLLSQETAGQKPLSVHRPPTSGC [TSPAN10] | 4.4 ± 0.17 | 4.46 ± 0.18 | – | – |
| ISSVGGEAMFCDFPKINHGILYDE [CFHR2] | 3.38 ± 0.26 | – | – | – |
| AQHKFLVAVESMEPNNIVVLLQTS [TCF25] | 2.58 ± 0.54 | 2.35 ± 0.56 | – | – |
| DQLRSGSPPKSPRTTVHDKSAHQT [DNAJC4] | 5.26 ± 0.25 | 5.4 ± 0.14 | – | – |
| LLDKAGVPPGVVNIVFGTGPRVGE [ALDH8A1] | 2.53 ± 0.16 | 2.76 ± 0.51 | – | – |
| GATGECQNFLDPGYPLPKLDMNFS [ZNF449] | 3.47 ± 0.2 | 3.67 ± 0.29 | – | – |
| GAARLALLQGAGLDVERWLKPAMT [FCHSD1] | 2.5 ± 0.53 | 2.45 ± 0.36 | – | – |
| LLELAGEVTDTGDPIVRPLWWIAP [MYORG] | 2.46 ± 0.21 | 2.43 ± 0.24 | – | – |
| ASQHSYPLNRFSSVPLDPMERPMS [CBY2] | 3.92 ± 0.33 | 3.98 ± 0.32 | – | – |
| AESFLLKSPIAPCSLDKRVILIFH [CDC25B] | 2.75 ± 0.73 | 2.68 ± 0.96 | – | – |

| Sequence | protein stability index [1] | protein stability index [2] | protein stability index (treatment: DMSO, c terminus: native) | protein stability index (treatment: MLN4924 1 uM, 8 h, c terminus: native) |
| --- | --- | --- | --- | --- |
| GGSSAVGQFVSLDGAGKTPTLGGG [BRF1] | 4.34 ± 0.49 | 4.82 ± 0.33 | – | – |
| LLCAVCYDPFRDAVTLRCGHNFCR [TRIM35] | 2.38 ± 0.23 | 2.46 ± 0.29 | – | – |
| DYPYSPPAFRFLTKMWHPNIYETG [CDC34] | 2.17 ± 0.62 | 1.94 ± 0.28 | – | – |
| LMMRGVKHHNLEGLRKRIATLFFH [IQUB] | 2.34 ± 0.62 | 2.52 ± 0.7 | – | – |
| YLLQWLKSDKALMMLFNDGTFQVN [PLK2] | 2.73 ± 0.53 | 2.53 ± 0.51 | – | – |
| QDEVPDEVENQFILRLPLEHACTV [TAF7L] | 4.395 ± 0.043 | 4.47 ± 0.13 | – | – |
| GWPHEDAAQFTDFLIPMLEMVPEK [SRPK2] | 3.83 ± 0.26 | 4.01 ± 0.1 | – | – |
| SDLSRSSRGELIPISPSTEVGGSG [MYBL2] | 5 ± 0.4 | 4.86 ± 0.34 | – | – |
| NEKETMQSLNDRLASYLDRVRSLE [KRT18] | 3.61 ± 0.23 | 3.54 ± 0.28 | – | – |
| EKSGSAEPFVLPASSVESTLPVLE [FBXO34] | 5.08 ± 0.39 | 5.01 ± 0.34 | – | – |
| GISAKVFGATTNYGKDIVKACSLL [ZBED1] | 2.33 ± 0.4 | 2.26 ± 0.35 | – | – |
| SWEVVRNPLIASSFSLVKLVLRRQ [C22orf31] | 2.52 ± 0.53 | 2.21 ± 0.28 | – | – |
| QKTSGQHMIQGAGSLEKALPIIQS [DLC1] | 3.86 ± 0.26 | 4.18 ± 0.097 | – | – |
| MREYKLVVLGSGGVGKSALTVQFV [RAP1B] | 2.51 ± 0.53 | 2.8 ± 0.75 | – | – |
| LFMKKNHEEEVKGLQAQIASSGLT [KRT18] | 3.81 ± 0.15 | 3.98 ± 0.27 | – | – |
| CRCVASPPPDAAATAASSSASSPA [SLC25A25] | 4.52 ± 0.22 | 4.35 ± 0.29 | – | – |
| GTDVTRCICGFTHDDGYMICCDKC [KMT2E] | 5 ± 0.2 | 5.07 ± 0.12 | – | – |
| ADGGGAPPQGGCGGGGCDRYEPLP [KCNA3] | 4.54 ± 0.32 | 4.75 ± 0.16 | – | – |
| MAKRIGKDLSNTFAKLEKLTILAK [STX5] | 2.77 ± 0.69 | 2.77 ± 0.53 | – | – |
| LIFSPCSDCEEEEEEEEEEGSGHS [WEE1] | 4.88 ± 0.19 | 5.03 ± 0.13 | – | – |
| IEDTPLVPVSFIFIFTFVKKKKIG [PCDHGA10] | 2.29 ± 0.55 | 3.12 ± 0.37 | – | – |
| PDPSVWSRRYTEMALPFFSLAEVR [MYORG] | 2.52 ± 0.31 | 2.45 ± 0.13 | – | – |
| LDMDDGTLSFIVDGQYMGVAFRGL [SPSB1] | 2.61 ± 0.67 | 2.32 ± 0.31 | – | – |

| Sequence | protein stability index [1] | protein stability index [2] | protein stability index (treatment: DMSO, c terminus: native) | protein stability index (treatment: MLN4924 1 uM, 8 h, c terminus: native) |
| --- | --- | --- | --- | --- |
| MSDTAVADTRRLNSKPQDLTDAYG [SNX12] | 4.96 ± 0.24 | 5.06 ± 0.14 | – | – |
| RSFWELIGEAAKSVKLERPVRGH [S100A14] | – | – | 2.82 ± 0.81 | 2.65 ± 0.62 |
| ELESIRQDRDALHMEGLIVRERIL [FEM1B] | 3.44 ± 0.27 | 3.52 ± 0.36 | – | – |
| IFFMAAFAFSNGYLASLCMCFGPK [SLC29A1] | 2.42 ± 0.38 | 2.52 ± 0.34 | – | – |
| LKEAPVQDQGYKTLRLRENCVLSS [ZNF8] | 3.88 ± 0.12 | 3.84 ± 0.1 | – | – |
| PVLGRRAVGGRLRLVPGGQRPADV [HAGHL] | 3.64 ± 0.17 | 3.88 ± 0.36 | – | – |
| NLPKFCHECGTKYPVEWAKFCCEC [ZC2HC1A] | 5.275 ± 0.001 | 5.557 ± 0.049 | – | – |
| ALKMTWHVHCFTCAACKTPIRNRA [PDLIM7] | 2.5 ± 0.51 | 2.3 ± 0.58 | – | – |
| SSLVWLFSQLYLYSFISLFIYMVL [MCOLN1] | 3.02 ± 0.19 | 3.03 ± 0.68 | – | – |
| HDQCKCENLIMFQNLANEEVRKLT [MATN2] | 3.13 ± 0.25 | 3.58 ± 0.28 | – | – |
| RVIACQKTAHDSNVLHVARLPNRQ [WDR41] | 3.52 ± 0.18 | 3.65 ± 0.27 | – | – |
| VATTARHSAAYRADPLRVSSRDKL [FUNDC2] | 4.1 ± 0.096 | 4.1 ± 0.19 | – | – |
| SLDSLDGLSLTDESDSCVSFEAPL [PSD2] | 4.95 ± 0.2 | 4.86 ± 0.23 | – | – |
| RRVLQGLEIELQSQLSMKASLENS [KRT16] | 2.8 ± 0.21 | 2.89 ± 0.4 | – | – |
| SGCLPPEPLFEAGDATLASDLQDW [FOXJ1] | 4.82 ± 0.36 | 4.74 ± 0.18 | – | – |
| HEMVAHRHRQEVLCKEMVPLAEQT [ZSCAN9] | 4.42 ± 0.2 | 4.41 ± 0.19 | – | – |
| LELGSYIKDLSVVHSDLSSIVILD [CTDNEP1] | 2.4 ± 0.13 | 2.48 ± 0.62 | – | – |
| DITAYLFGFFFGRTPLIKLSPKKT [CDS1] | 3.11 ± 0.64 | 2.73 ± 0.46 | – | – |
| LVHHRAAHSNEILIFSVQPKSLVR [KLHDC2] | 2.45 ± 0.31 | 2.21 ± 0.24 | – | – |
| HASKCEFLANLHITALLNVSRRTS [DUSP5] | 2.2 ± 0.2 | 2.33 ± 0.22 | – | – |
